What follows are sequences tested on Escherichia coli TOP10 (assay: shrunken log2 fold change of peptide-encoding DNA abundance (4.5 h post-induction vs induction); higher = less antimicrobial activity (less host growth inhibition)). Conditions: time post-induction: 4.5 h; library: site-saturation at positions 5, 18, 19, 20.
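Note: peptides expressed intracellularly from a pBAD plasmid library in pooled LB shake-flask culture, induced with 0.3% L-arabinose, DNA abundance read by NGS, three biological replicates, DESeq2 with apeglm shrinkage.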

Row | Sequence | shrunken log2 fold change
1 | RRIRMRPPRLPRPRPRPTEPPRP | 0.383
2 | RRIRTRPPRLPRPRPRPTYDPRP | -0.311
3 | RRIRNRPPRLPRPRPRPAAEPRP | 0.232
4 | RRIRARPPRLPRPRPRPQVSPRP | -0.156
5 | RRIRARPPRLPRPRPRPPRGPRP | 0.833
6 | RRIRNRPPRLPRPRPRPLKDPRP | -0.0618
7 | RRIRCRPPRLPRPRPRPRQNPRP | 0.226
8 | RRIRPRPPRLPRPRPRPRSRPRP | 0.386
9 | RRIRARPPRLPRPRPRPKVKPRP | 0.171
10 | RRIRIRPPRLPRPRPRPKDSPRP | -0.273
11 | RRIRHRPPRLPRPRPRPFMCPRP | -0.57
12 | RRIRRRPPRLPRPRPRPSNNPRP | -0.303
13 | RRIRYRPPRLPRPRPRPEPQPRP | -0.777
14 | RRIRFRPPRLPRPRPRPLEEPRP | -0.0138
15 | RRIRWRPPRLPRPRPRPYCTPRP | -0.322
16 | RRIRHRPPRLPRPRPRPTTYPRP | -0.9
17 | RRIRQRPPRLPRPRPRPCGDPRP | -0.0871
18 | RRIRPRPPRLPRPRPRPRFNPRP | -0.181
19 | RRIRDRPPRLPRPRPRPTYRPRP | -0.224
20 | RRIRWRPPRLPRPRPRPQDQPRP | 0.0586
21 | RRIRHRPPRLPRPRPRPPWSPRP | 0.093
22 | RRIRIRPPRLPRPRPRPIHIPRP | -0.149
23 | RRIRGRPPRLPRPRPRPGWIPRP | 0.117
24 | RRIRPRPPRLPRPRPRPHYMPRP | -0.747
25 | RRIRIRPPRLPRPRPRPVHQPRP | -0.398

Row | Sequence | shrunken log2 fold change
26 | RRIRGRPPRLPRPRPRPKDAPRP | 0.432
27 | RRIRTRPPRLPRPRPRPIFTPRP | -0.0602
28 | RRIRQRPPRLPRPRPRPIFCPRP | 0.276
29 | RRIRQRPPRLPRPRPRPPDIPRP | -0.0497
30 | RRIRARPPRLPRPRPRPNWYPRP | -0.245
31 | RRIRQRPPRLPRPRPRPGRLPRP | 0.0206
32 | RRIRKRPPRLPRPRPRPQSEPRP | 0.0585
33 | RRIRPRPPRLPRPRPRPLLLPRP | -0.208
34 | RRIRARPPRLPRPRPRPGGDPRP | 0.604
35 | RRIRVRPPRLPRPRPRPDNRPRP | -0.00604
36 | RRIRKRPPRLPRPRPRPECIPRP | 0.0177
37 | RRIRHRPPRLPRPRPRPIDHPRP | -0.267
38 | RRIRPRPPRLPRPRPRPEWHPRP | 1.23
39 | RRIRWRPPRLPRPRPRPALRPRP | 0.243
40 | RRIRDRPPRLPRPRPRPMDPPRP | -0.0367
41 | RRIRQRPPRLPRPRPRPLMRPRP | 0.345
42 | RRIRARPPRLPRPRPRPLRSPRP | 0.914
43 | RRIRVRPPRLPRPRPRPPFWPRP | 0.46
44 | RRIRCRPPRLPRPRPRPFQYPRP | -1.21
45 | RRIRVRPPRLPRPRPRPAYCPRP | -0.112
46 | RRIRFRPPRLPRPRPRPEHNPRP | -0.489
47 | RRIRGRPPRLPRPRPRPKIRPRP | 0.118
48 | RRIRYRPPRLPRPRPRPSFGPRP | -0.522
49 | RRIRQRPPRLPRPRPRPSNNPRP | -0.729
50 | RRIRRRPPRLPRPRPRPHYTPRP | -0.313

Row | Sequence | shrunken log2 fold change
51 | RRIRARPPRLPRPRPRPIYVPRP | -0.25
52 | RRIRWRPPRLPRPRPRPCPQPRP | -0.134
53 | RRIRKRPPRLPRPRPRPLGKPRP | 0.39
54 | RRIRKRPPRLPRPRPRPCMEPRP | 0.0223
55 | RRIRVRPPRLPRPRPRPDRWPRP | 0.478
56 | RRIRHRPPRLPRPRPRPKKTPRP | 0.0065
57 | RRIRLRPPRLPRPRPRPEQFPRP | -0.141
58 | RRIRDRPPRLPRPRPRPRETPRP | 0.567
59 | RRIRGRPPRLPRPRPRPMNDPRP | 0.337
60 | RRIRDRPPRLPRPRPRPDIAPRP | 0.209
61 | RRIRMRPPRLPRPRPRPPWNPRP | 0.369
62 | RRIRMRPPRLPRPRPRPDCHPRP | 1.49
63 | RRIRKRPPRLPRPRPRPDYNPRP | -0.0745
64 | RRIRRRPPRLPRPRPRPGEAPRP | 0.752
65 | RRIRVRPPRLPRPRPRPFVKPRP | -0.199
66 | RRIRRRPPRLPRPRPRPFPQPRP | 0.441
67 | RRIRTRPPRLPRPRPRPIMIPRP | -0.163
68 | RRIRSRPPRLPRPRPRPRAMPRP | 0.107
69 | RRIRSRPPRLPRPRPRPPQMPRP | 0.154
70 | RRIRCRPPRLPRPRPRPYCDPRP | -0.623
71 | RRIRQRPPRLPRPRPRPIERPRP | -0.0353
72 | RRIRMRPPRLPRPRPRPYHAPRP | -0.387
73 | RRIRFRPPRLPRPRPRPGTMPRP | -0.494
74 | RRIRWRPPRLPRPRPRPQNMPRP | -0.0938
75 | RRIRFRPPRLPRPRPRPFEQPRP | -0.311

From the supplement of paper PMC9112550, “Optimization of the antimicrobial peptide Bac7 by deep mutational scanning” (BMC Biology, 2022)
